What was measured:
[1] = target: T1, mouse GFRAL-Fc fusion (R&D catalogue no. 9844-GR-050050) (mouse, UniProt Q6SJE0 20-349); assay: SPR, KD for mouse GFRAL compared with KD for human GFRAL
T1 construct: Bought fusion protein; not shown: Fc part of the bought fusion
T1 sequence: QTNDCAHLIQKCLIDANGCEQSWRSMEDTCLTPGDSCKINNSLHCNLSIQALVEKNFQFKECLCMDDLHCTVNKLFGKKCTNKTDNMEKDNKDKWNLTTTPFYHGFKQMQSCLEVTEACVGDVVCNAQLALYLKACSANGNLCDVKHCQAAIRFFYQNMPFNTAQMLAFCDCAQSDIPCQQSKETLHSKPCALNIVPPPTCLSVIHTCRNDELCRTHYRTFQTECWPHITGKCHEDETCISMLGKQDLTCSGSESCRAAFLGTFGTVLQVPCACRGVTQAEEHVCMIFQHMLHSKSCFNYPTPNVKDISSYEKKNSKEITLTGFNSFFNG

[2] = target: T1, mouse GFRAL-Fc fusion (R&D catalogue …); assay: SPR, antibody captured via anti-human Fc, mouse GFRAL-Fc fusion as analyte, method of Example 2
Protocol: (§1) Binding of antibodies to human GFRAL was measured by SPR using His-tagged human GFRAL as analyte, and test antibody coupled to the surface of a CM4 biosensor chip via immobilised anti-human Fc antibody. Running buffer was HBS-P+ buffer pH 7.4 (GE BR100671) with 1 mM CaCl₂. Antibodies were captured for 60 seconds at 1 μg/ml (˜80-140 RU captured, depending on the binder). Analyte (recombinant soluble GFRAL protein, R&D catalogue no. 9647-GR-050) was injected at 100, 25, 6.25, 1.56, 0.39, 0.098, 0.024 and 0 nM for 120 seconds association time at […] and dissociation was monitored for 1200 seconds. The chip surface was regenerated using 10 mM glycine pH 1.5. All experiments were performed at 25° C. Sensorgrams for each antibody were double subtracted (reference cell and 0 concentration). Data were fitted to a 1:1 binding interaction model. Sensorgrams were fitted using multiple cycle kinetics mode. […] FIG. 5.
Affinity for mouse GFRAL was determined by SPR by the same method as in Example 2 using a mouse GFRAL-Fc fusion (R&D catalogue no. 9844-GR-050050) as analyte. FIG. 6.

[3] = target: T2, human GFRAL expressed on the surface of HEK293 cells (co-expressed with human RET) (human, UniProt Q6UXV0 19-394); assay: cell-based or functional assay
T2 sequence: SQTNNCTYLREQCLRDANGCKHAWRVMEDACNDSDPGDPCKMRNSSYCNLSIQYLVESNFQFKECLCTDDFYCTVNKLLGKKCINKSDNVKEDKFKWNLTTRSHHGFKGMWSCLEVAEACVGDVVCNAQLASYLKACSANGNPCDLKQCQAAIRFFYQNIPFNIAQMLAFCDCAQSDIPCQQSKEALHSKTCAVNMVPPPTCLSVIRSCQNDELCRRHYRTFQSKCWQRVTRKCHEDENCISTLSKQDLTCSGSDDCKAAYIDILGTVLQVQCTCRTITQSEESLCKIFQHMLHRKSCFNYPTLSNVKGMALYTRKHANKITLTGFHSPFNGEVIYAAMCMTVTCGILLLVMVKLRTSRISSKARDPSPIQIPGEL

[4] = target: T3, His-tagged human GFRAL (recombinant soluble GFRAL protein, R&D catalogue no. 9647-GR-050) (human, UniProt Q6UXV0 19-351); assay: SPR sandwich assay: row antibody captured via anti-Fc, GFRAL antigen added, then GDF15 injected as analyte (competitor: GDF15)
T3 construct: Bought soluble protein; also called Human GFRAL with a 6His tag; GFRAL antigen; not shown: 6His tag
T3 sequence: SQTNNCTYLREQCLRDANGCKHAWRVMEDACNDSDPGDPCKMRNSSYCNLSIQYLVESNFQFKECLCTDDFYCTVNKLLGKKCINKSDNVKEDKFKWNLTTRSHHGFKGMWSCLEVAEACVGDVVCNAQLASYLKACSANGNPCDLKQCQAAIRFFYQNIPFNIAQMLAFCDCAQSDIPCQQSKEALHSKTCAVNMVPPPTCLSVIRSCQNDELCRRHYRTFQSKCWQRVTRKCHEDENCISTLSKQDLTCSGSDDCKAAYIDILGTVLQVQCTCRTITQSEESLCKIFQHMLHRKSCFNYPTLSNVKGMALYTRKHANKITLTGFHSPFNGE
Protocol: (§2) In this assay, pairs of antibodies are tested for their ability to simultaneously bind antigen. A first antibody is coupled via its Fc region to a solid support and the GFRAL antigen is added in solution, allowing formation of an antibody-antigen complex. A second antibody is then added in solution.
The same principle may be used to assess whether an antibody and a native ligand compete for binding to antigen. Thus, a test antibody is coupled to a solid support and the GFRAL antigen is added in solution, allowing formation of an antibody-GFRAL complex. GDF15 is then added in solution.

[5] = target: T3, His-tagged human GFRAL (recombinant …); assay: SPR sandwich assay: row antibody captured via anti-Fc, GFRAL antigen added, then mAbQ injected as analyte (competitor: mAb Q)
Protocol: as §2

[6] = target: T3, His-tagged human GFRAL (recombinant …); assay: SPR, antibody captured via anti-human Fc on CM4 chip, His-tagged human GFRAL as analyte, 25 C, 1:1 model
Protocol: as §1

[7] = target: T3, His-tagged human GFRAL (recombinant …); assay: SPR, KD for human GFRAL of QUEL-0301 compared with reference antibody mAb Q
[8] = target: T2, human GFRAL expressed on the surface of …; assay: cell-based or functional assay; remark: listed apart in the source

B1: QUEL-0101 (antibody, V domains shown)
VH: QVQLVESGGGVVQPGRSLRLSCAASGFAFNNYGMHWVRQGPGRGLEWVAIISYDGTTQYSVDSVKGRFTISRDNSKNTLYLQMNSLRTEDTALYYCAKEAGDFYGSGNYGYHKYGLDVWGQGTTVTVSS
VL: DIQMTQSPSSLSASVGDRVTITCRASQDISNYLAWYQQKPGKIPKLLIYAASTLQSGVPSRFSGSGSGTDFTLTISSLQPEDVASYYCQKYSSAPLTFGGGTKVEIK
notes: the antibody was captured via anti-human Fc antibody
Which “fold difference in affinity, human against mouse GFRAL” value [1] does the source give for B1 here?
The value was ≤ 10 fold.

What about the Kd [2] of the same binder?
Its Kd is 1.19 nM.

And the koff [2]?
The koff was 0.000112 s⁻¹.

What about the kon [2] of the same binder?
The kon was 93700 M⁻¹ s⁻¹.

And the “IC50 (ERK phosphorylation HTRF assay, 4 nM GDF15)” value [3]?
The value was 2.8 nM.

And the “resonance units after GDF15 injection” value [4]?
Its value is 87.3 resonance units.

And the “resonance units after mAbQ injection” value [5]?
The value was 306 resonance units.

And the Kd [6]?
Its Kd is 0.14 nM.

And the koff [6]?
Its koff is 7.87e-05 s⁻¹.

What about the kon [6] of the same binder?
The kon was 561000 M⁻¹ s⁻¹.

B2: QUEL-0201 (antibody, V domains shown)
VH: QVQLVQSGAEVKEPGASVRVSCKASGYTFISHAIHWVRQAPGQRLEWMGWINAVNGNTKYSQKFQDRVTFTRDTSASTAYMDLNSLRAEDTALYYCAREGYTYGVHYSYGMDVWGQGTTVTVSS
VL: QSVLTQPPSVSGAPGQRVTISCTGSSSNIGAGYDVHWYQQLPGTVLKLLIYGNNNRPSGVPDRFSGSNSGTSASLAITGLQPEDEADYYCQSYDSSLSGYWVFGGGTKLTVL
notes: as for B1
With B2 as the binder, how does the “fold difference in affinity, human against mouse GFRAL” value [1] read?
Its value is ≤ 1.5 fold.

And the Kd [2]?
The Kd was 0.0648 nM.

And the koff [2]?
Its koff is 9.9e-06 s⁻¹.

What about the kon [2] of the same binder?
Its kon is 153000 M⁻¹ s⁻¹.

And the “IC50 (ERK phosphorylation HTRF assay, 4 nM GDF15)” value [3]?
Its value is 8.6 nM.

And the “resonance units after GDF15 injection” value [4]?
Its value is 83.9 resonance units.

What about the “resonance units after mAbQ injection” value [5] of the same binder?
Its value is 268 resonance units.

And the Kd [6]?
Its Kd is 0.0839 nM.

And the koff [6]?
Its koff is 6.19e-05 s⁻¹.

And the kon [6]?
The kon was 738000 M⁻¹ s⁻¹.

B3: QUEL-0301 (antibody, V domains shown)
VH: EVQLVESGGGLVQPGGSLRLSCAASGFTFSNSWMNWVRQTPGKGLEWVANIDQDGDQKYYVDSVKGRFTISRDNAKNSLYLQMNSLRAEDTAVYYCAREITGTTFDYWGQGTLVTVSS
VL: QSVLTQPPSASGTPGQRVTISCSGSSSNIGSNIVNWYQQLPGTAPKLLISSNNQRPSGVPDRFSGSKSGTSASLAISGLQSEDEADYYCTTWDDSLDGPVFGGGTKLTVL
notes: as for B1
Which results are given for B3?
fold difference in affinity against mAb Q [7]: ~4 fold; Kd [2]: 4.95 nM; koff [2]: 0.000524 s⁻¹; kon [2]: 106000 M⁻¹ s⁻¹; IC50 (ERK phosphorylation HTRF assay, 4 nM GDF15) [3]: 9.4 nM; resonance units after GDF15 injection [4]: 77.3 resonance units; resonance units after mAbQ injection [5]: 298 resonance units; Kd [6]: 0.000988 nM; koff [6]: 9.72e-06 s⁻¹; kon [6]: 9.83e+06 M⁻¹ s⁻¹

B4: recombinant human GDF15 protein with 6-His tag (R&D Systems, 957-GD) (ligand, UniProt Q99988 197-308, looked up)
chain: ARNGDHCPLGPGRCCRLHTVRASLEDLGWADWVLSPREVQVTMCIGACPSQFRAANMHAQIKTSLHRLKPDTVPAPCCVPASYNPMVLIQKTDTGVSLQTYDDLLAKDCHCI
Which “EC50 (read off the curve)” value [8] does the source give for B4 here?
The value was ~1 nM.

Source: patent publication US20240182585A1 (CAMBRIDGE ENTERPRISE, published 2024)
